# A protein production outcome set (Wang et al. 2014)
# Experiment: label from the status in PepcDB records
# 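Note: failed if final PepcDB status was selected cloned or expressed and not failed if soluble or beyond.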
row,Sequence,protein production
1,MNLSFKIFDISNTQRSKAKKVQGKKYEIFLNENEHSLITPKVSFKEILRYYYLYPKNAIPSFKLPFFKPDLSGFSTPHITWLGHSSLFISFKEYKILIDPIFNTHASPISFINKAFKNAPVYNINDFNEIFAVIITHSHFDHLDAKSVKALKDKAKFFITPLKVGNYLKSYGVSEKKIIELDWWSGIEFGDLKIMATPAQHSSSRGDGKNKTLWASFVMEFLSVDKRVFFSADGGYFTHFKKIGEYFGSFDLACLESGQFNIAWPYSHSFPEQILKEAKDLNAKAVMPIHWGRFLAGTHAWNEVVKFLYENLDLPLITPKMGEAYEVGAKFKQDFWWKEELEHHHHHH,failed
2,MNLTELMERIPHLREILNIVREAFKDYDDPAHDISHTFRVMENASEIASREKCDLQKAIIAALLHDIKRPHEALTGVDHAESGAEYASGLLPTMGFDISFVAEVSKAIRSHRYSGGLTPTSLTGKILQDADRLDAIGAVAIARVFSYSGKTGTPLHSLQFSPRSSYSGNSRSSINHFHEKILKIRPETFWTETARKMAEDRYSFVVEFVQRFLAEWGQI,not failed
3,MNMIDQLNITDFQVFTDENSDKSVSKIYKFSSKMILSDFHAQPHGFLNGGASLALAEITAGMASNAIGSSQYFALGQSISANHLNSKKCEGFVNACGLLLKNGKRNHVWEIKITDENETLISQITVVNALVPQKNSDKLEHHHHHH,failed
4,MNMLALTILLPLIGFVLLAFSRGRWSENLSATVGMGSVGLAALVTAYVGVDFFANGKQAVSVPLWTWMSVGDFNIGFNLVLDGLSLTMLSVVTGVGFLIHMFASWYMRGEEGYSRFFAYTNLFIASMVVLVLADNLLLMYLGWEGVGLCSYLLIGFYYTDPKNGAAAMKAFVVTRVGDVFLAFALFILYNELGTLNFREMVELAPQHFANGSTTLQWATLMLLGGAVGKSAQLPLQTWLADAMAGPTPVSALIHAATMVTAGVYLIARTHGLFLMTPEVLHLVGIVGAVTLVLAGFAALVQTDIKRVLAYSTMSQIGYMFLALGVQAWDAAIFHLMTHAFFKALLFLSSGSVILACHHEQNIFKMGGLRKSIPLVYVCFLVGGAALSALPLITAGFFSKDEILAGAMANGHINLMVAGLVGAFMTSLYTFRMIFIVFHGKEQIHAHAGKGITHHLPLIVLLVLSTFVGALIVPPLEGVLPQTTELAHGSVMTLEIASGIIAIAGILIAAWLWLGKRTLVTSIANSAPGRFFGTWWFHAWGFDWLYDKVFVKPFLGIAWLLKRDPLNSLMNIPAILSRFAGKGLLVSENGYLRWYVASMSIGAVVVLALLMVLR,failed
5,MNMSTDRIERRIVLHAPRSRVWRALTNADEFGAWFRVDLAGQAFEAGRRVEGRITYPGYEHLVLQMRIERIEPEHHFSYRWHPAAVDPAVDYSQEAPTLVVFELADAEGGPLLTVVESGFDALPVERRADAFRMNSGGWDEQMTNIAAHVDAR,failed
6,MNMTAGRRAALTREQASSETMTMESSAYGEAVRAVRTGEISADEAANQLIDRMTEGEVLGLLDGDSSRWVLPFIPALLDRRPFVAGAVSRLGIPGIRFSDGGRGVVIGASTAFPVTIARAATWDPSLEERVGIAIGLETRARGANYSASVCVNLLRHPAWGRAQECYGEDPVLTGRMGSALTRGVRLHVMACVKHFALNSMENERFEVDVAVDEHALHEVYLPHFKAVVDAGADSVMSSYNRVRGEYMDVNRALLTDVLRREWGFSGFVTSDWVFGTHDAVASLEAGMDVEMPLRLLRARELPAALRNGVLARATVLQSARRVLRTCVEHSANRELAAPTRAVIASPAHRALAHQVAAESIVMLKNETVGAAPLLPLAPTIQHLAVIGRLAAQGNLGDHGSSRVRPPSTVSPLQGLREALPGVLISTTTGRDERRAAAMAAAAEMAIVVVGLDQHDEGESVVTGGVDVGVIGRTFGSGPLRQVLIGLAHLASRFVRGGDRSSLNLRPSDERLIQAVVAANPRTVVVLVSGSAILTEAWRDRVPALLLAWYGGMEGGRALASVLTGSEEPGGRLPFVLPTDAAHLPFFDSAAKSVVYDAQWGQRRLDGEGHRPAYPFGFGLSYTTLEHRLIDHTLDSSGGNANVHVTNKGHRKGSTVVQVYAADVSLRRPVAQLLGFRKVTLQPGAETTVRVVLDAGPTLQRDSTTRRWSPRSGVWALQASQHSPDSWENAVRLRRTEGLIDQEGTSDVKPA,failed
7,MNNDISIAALIVTYNPDKRLIESLTKLEKLVDFVVIVDNNSNKSPVLDYISNNIFNDRYLIQLEDNLGIAYALNTGIKYILEKGHYDYILTLDQDTVPLIDDIKELIKRANSIYSNIGIIALISKMDPKIPEFTDVKFPMTSGNIVKSEIFKYIKYREEFFIDSVDFDFDYNVRMHGYRIIQYNYRAIDHNVGITKNGFPYESSERLYYIIRNSTVLFGENKITFRMYIFQAFYWITMGLIHWEILKTAKSSVKGFKDGVNKKLGKNNDI,failed
8,MNNENPLVSILIPVYNREKYIGEAIESAINQTYKNIEVIIVDNCSTDNTWKILQDYQCKDKRIHIFQNEKNLGPVYNWIECFKRAKGVYSKILWSDDWMSLDFVENALSAFNEDISFVISAQQIITNDKEILSNVAYLKDRYSQREYLENALLYNKYNFPLSPGCAIFRTKDVLNNFIVDIPNSDSLDSKKNGAGNDLYLFLKIALHYPYIGVVANSVSYFRAHKESFSVASDLNLYYEWAKVDFINSELRDSYFISAKKMLLFKFSVKNKHFRNICKSLSYNKYILQAVFRLLLIRILEHHHHHH,failed
9,MNNFKLIVRKWYIPVLIISLITLVASAYALYWATIPETKETQISIRHYSALAYFSGGAEVKKDNPIWANGSFVTLPVYSYSLTPEYSGEFYFTTAPRGDITIETEAKIVYFYEVSDAPVWEKVYYAASNTSRGEIKTNFKINVTDLKSKINEAQNSFGVYLGKTGARIDVSVHYYGKITGKDVDETLSFKIPIDVQSTYYSFSTLNETRDFEMPSTRVVEVQKPLHMKVIPAALCTVSIIFAGLSVVYRTKYSDVSSLEREIERVSWEKKLKEVSFARMPETNLEMVEVERFEDISKAAEETFEHLFYDREKGVFFFIHGGVLYYCREK,failed
10,MNNFVSELQSYFASKYPFLSANIPRQQQLLGDSWSQEFDGELIKHFGTIEELRTAADGYAKFAMDSLLLTAKFQKTKDYDNKTYAECASEVYQSESYMHSLYLPGILLSHYLWKHHYAMYQFYKSIVVPVLPKSGLFIDVGVGTGFYSRNLLRDSQMTGIGCDMSPHSLSYTRSTLSKFGTVDKYSFCLCDYYHFNQYFQSTADFILSIEVLEHLEDPMKMLESLYKSLKPGGLGLISAAVNAPNADHIYLYRSCEDVRHQLIKAGFEIRHDTCDEAYEARTIGEVVPVNYGALVCKPS,failed
11,MNNGQPLKHRGVTVEDLLRLRSVRDPHYASDGTHGVFVQKSIDEEKQYCSHLYIWTEDGAVRQWTFGRWRDTRPRFSPDSKTIAFLSDRSGHTQLWLLPADGGEARQLTFFKNGVRDYVWAPDGTFLIALTTLGDNETIDDREEPKKKETKPADLKPRVVERLYYKSDASGFLDGKQAVLVCIDATSGKTEALTSREEEISSFAISPNGRTLAFMANRNEDPDTTFTRDIVLLDLESKAETNLTKGSGTFTSLAWSPDGTKLAAIGHDLAFLGATIHQLYVFEPERGTKRVLTADWDVHLGDAMVGDTHADAKGPGPIWKRDGTGLYVTASERGRVNVYFVPLDGPIVPIIEGDFHVYGLAIHPNEQQAVAAISEPTMIGDLYTISLESGTKTRLTRVNEALENEVTFADAEPFTYQSTDGWDIQGWIMKPPRLGDGEKAPLVVEIHGGPHTMYGFTFFHEFQLLASSGYVVLFTNPRGSHGYGQSFVNAVRGDYGGMDYEDIMAGVDAAIKQFAFIDETRLGVTGGSYGGFMTNWIVGHTNRFRAAVTQRSISNWLSFAGVSDIGYFFTKWEVGCDVWEDAERLWHHSPLKYVKNVRTPLLILHSEHDYRCPIEQAEQLFIALKQLGQETKLVRFPDANHDLSRTGNPALRLERLRQIVGWFDHYLKGPLD,failed
12,MNNLKKYTLVAVFVFLTAVCFQHPGITSAATTITIDPDATYQTIEGWGASICWWGNQIGRWSPDNRNRLIEKIVSPTDGLGYNIFRYNIGGGDNPGHNHMRDYADIQGYQNADRSWNWNADAAQRAVLTRLIERGRYYGSEIILEAFSNSPPYWMTKSGCASGTSDGSNNLRDDCYDDFADYLTEVVKHFRDAWGITFRTLEPMNEPNSDWWKAGGRQEGCSFSYANQQRIIKEVGEKLKAKGLTGTTVSAADEASIDTALEGLQSYDATTLSYMSQLNVHSYFGSKRAQLRDLAKSKGLRIWQSESGPLSFNGDMADSCIMLSKRIVTDLKELQCVAWLDWQIIDGGNWGSIYVDDASQTFTLTEKFYMHANYSRFIRPGYTIIGANNEKTIAAISPDKKKLVIVATNDNKSSSANYTFNLTRFSGVNSTVEVYRTSPSLSLAKSIITASNKIVSDTLPPYSINTYVITLDGGVESVPAVGLQSYNYPNRYVRHADFDARIDENVTPLEDSQWRLVPGLANSSEGYVSIQSVNYPGYYLRHWDYDFRLDKNDGTTIFAEDATFKLVPGLADPSCVSFQSYNYPDRYIRHYGYLLKLERISTDLDRQDATFLIISDDSPGPITDSGYIMAYFKQAPGEYGLNLCYSTDGLHWRNINDGKPVLYAQMGTKGIRDPYIFRKQDGKFGIVATDMLGTNWGDTSQYIHYWESEDLINFTERLIKVHNKSNMHAWAPEVFYDENRKQYGIYWAGNTDYNRIYVNYTTDFDTVSDCQVFFDPGYDVIDAHIVSDKGMYYLFFKDERASGKAIKVARSSSLTPNSFTVFTPNFITSPNTEGPFVFKDNNSDSWYMYVDIYSNNGIFECWKTNDLNALSWTKVTGISVPPGVRHGSVVKVNRWELETAISRKVVTPPAPTPPPVLKGDVNADGVINSSDIMVLKRFLLRTITLTEEMLLNADTNGDGAVNSSDFTLLKRYILRSIDSFPV,failed
13,MNNPKPCEWKSNELSRGYIADYKAFNFVDGEGVRCSLYVSGCPFHCEGCYNKAAQSFKYGKPYTKELEDDILKDIGHESVQGLTLLGGEPFLNTATCLSVVKRIRATYGKTKDIWSWTGYTWDEMMQETTDKLELLSLIDVLVDGRFEQKLFDPNLAFRGSSNQRIIDVQKSLAADEVVLYELLEHHHHHH,not failed
14,MNNTNPLVSIIVPVYKVERYIHRSIDSLLRQTYNNLEIILVDDGSPDNCPFICDKYAMQDNRIRVIHKSNGGLSDARNAALNVMTGQYVTFVDSDDYIADNMIEKFIETVKLYQCNMVVAGMNIIDKNNQIYDYRRTLTSTLSTGIDITRKLLKDVFPFNFVCAKIFESSLFEEIRFPVGRHYEDTATTYKLTHKCERIYCIADCLYFYELEREGNITSELNTSKAIKSYIDGCLNSREQIFFCQKHKDFSDLLPVLTKRLQLWALLAIQSAISLGYKEYMFYYHQIRIYIRSLSYTQRMTHLQIALTFPIIYYSLYPLLSRLKKMYKN,failed
15,MNNTQKKLKVLFIGESWHIHMIHSKGYDSFTSSKYEEGATWLLECLRKGGVDIDYMPAHTVQIAFPESIDELNRYDVIVISDIGSNTFLLQNETFYQLKIKPNALESIKEYVKNGGGLLMIGGYLSFMGIEAKANYKNTVLAEVLPVIMLDGDDRVEKPEGICAEAVSPEHPVVNGFSDYPVFLGYNQAVARDDADVVLTINNDPLLVFGEYQQGKTACFMSDCSPHWGTQQFMSWPFYTDLWVNTLQFIARK,not failed
16,MNNTQQFSLSMRLFHWAMAALVISMLAAGLLMVRSLEPWQLSILTVHKAFGVVAAALVIARLMNRLFHQIPALPGDLSSLQTFVAKASHWLLYLLLFAMPISGYLMQYFAGRPIDVFGWFRLPSALTVNIENYAIFRELHGWLAIALMALVALHVAAALHHHFIRKDTVLKSML,failed
17,MNPEVTVLMSVYNDKNYLSESIESILNQTFENFEFLIINDASTDGSGELLEEYSKKDKRIRLIHNKNNRGLSYSLAEGVSLAKAPWIARMDADDVSFKDRLAVQMDHVKAHSELDILGSYVIDIDDKGNELEIRKVPTTHKEIANLIWTCPFIHPTVLFKKDSIIKAGSYDRNLRRRQDYDLWFRCLEAKLKFENIDKPLLYYRSTDDYYKKNNFKVQVQQAKMGFAGARRVKAKPIAYIGITVAFIKGILPYHIRKPLSQLLKKVDPRRALEHHHHHH,not failed
